# Reference: US20060263802A1 (CRUCELL HOLLAND B V, published 2006)
# Assays:
# Assay in all cases: PEPSCAN ELISA, looped 15-mer, 10 ug/ml
# [1] = target: looped peptide … (rabies virus strain ERA)
# [2] = target: looped peptide … (rabies virus strain ERA); remark: listed apart in the source
# [3] = target: looped peptide … (rabies virus strain ERA); remark: listed apart in the source
# [4] = target: looped peptide … (rabies virus strain ERA); remark: listed apart in the source
# [5] = target: looped peptide … (rabies virus strain ERA); remark: listed apart in the source
# [6] = target: looped peptide … (rabies virus strain ERA); remark: listed apart in the source
# [7] = target: looped peptide … (rabies virus strain ERA); remark: listed apart in the source
# [8] = target: looped peptide … (rabies virus strain ERA); remark: listed apart in the source
# [9] = target: looped peptide … (rabies virus strain ERA); remark: listed apart in the source
# [10] = target: looped peptide … (rabies virus strain ERA); remark: listed apart in the source
# [11] = target: looped peptide … (rabies virus strain ERA); remark: listed apart in the source
# [12] = target: looped peptide … (rabies virus strain ERA); remark: listed apart in the source
# [13] = target: looped peptide … (rabies virus strain ERA); remark: listed apart in the source
# [14] = target: looped peptide … (rabies virus strain ERA); remark: listed apart in the source
# [15] = target: looped peptide … (rabies virus strain ERA); remark: listed apart in the source
# [16] = target: looped peptide … (rabies virus strain ERA); remark: listed apart in the source
# [17] = target: looped peptide … (rabies virus strain ERA); remark: listed apart in the source
# [18] = target: looped peptide … (rabies virus strain ERA); remark: listed apart in the source
# [19] = target: looped peptide … (rabies virus strain ERA); remark: listed apart in the source
# [20] = target: looped peptide … (rabies virus strain ERA); remark: listed apart in the source
# [21] = target: looped peptide … (rabies virus strain ERA); remark: listed apart in the source
# [22] = target: looped peptide … (rabies virus strain ERA); remark: listed apart in the source
# [23] = target: looped peptide … (rabies virus strain ERA); remark: listed apart in the source
# [24] = target: looped peptide … (rabies virus strain ERA); remark: listed apart in the source
# [25] = target: looped peptide … (rabies virus strain ERA); remark: listed apart in the source
# [26] = target: looped peptide … (rabies virus strain ERA); remark: listed apart in the source
# [27] = target: looped peptide … (rabies virus strain ERA); remark: listed apart in the source
# [28] = target: looped peptide … (rabies virus strain ERA); remark: listed apart in the source
# [29] = target: looped peptide … (rabies virus strain ERA); remark: listed apart in the source
# [30] = target: looped peptide … (rabies virus strain ERA); remark: listed apart in the source
# [31] = target: looped peptide … (rabies virus strain ERA); remark: listed apart in the source
# [32] = target: looped peptide … (rabies virus strain ERA); remark: listed apart in the source
# [33] = target: looped peptide … (rabies virus strain ERA); remark: listed apart in the source
# [34] = target: looped peptide … (rabies virus strain ERA); remark: listed apart in the source
# [35] = target: looped peptide … (rabies virus strain ERA); remark: listed apart in the source
# [36] = target: looped peptide … (rabies virus strain ERA); remark: listed apart in the source
# [37] = target: looped peptide … (rabies virus strain ERA); remark: listed apart in the source
# [38] = target: looped peptide … (rabies virus strain ERA); remark: listed apart in the source
# [39] = target: looped peptide … (rabies virus strain ERA); remark: listed apart in the source
# [40] = target: looped peptide … (rabies virus strain ERA); remark: listed apart in the source
# [41] = target: looped peptide … (rabies virus strain ERA); remark: listed apart in the source
# [42] = target: looped peptide … (rabies virus strain ERA); remark: listed apart in the source
# [43] = target: looped peptide … (rabies virus strain ERA); remark: listed apart in the source
# [44] = target: looped peptide … (rabies virus strain ERA); remark: listed apart in the source
# [45] = target: looped peptide … (rabies virus strain ERA); remark: listed apart in the source
# [46] = target: looped peptide … (rabies virus strain ERA); remark: listed apart in the source
# [47] = target: looped peptide … (rabies virus strain ERA); remark: listed apart in the source
# [48] = target: looped peptide … (rabies virus strain ERA); remark: listed apart in the source
# [49] = target: looped peptide … (rabies virus strain ERA); remark: listed apart in the source
# [50] = target: looped peptide … (rabies virus strain ERA); remark: listed apart in the source
# [51] = target: looped peptide … (rabies virus strain ERA); remark: listed apart in the source
# [52] = target: looped peptide … (rabies virus strain ERA); remark: listed apart in the source
# [53] = target: looped peptide … (rabies virus strain ERA); remark: listed apart in the source
# [54] = target: looped peptide … (rabies virus strain ERA); remark: listed apart in the source
# [55] = target: looped peptide … (rabies virus strain ERA); remark: listed apart in the source
# [56] = target: looped peptide … (rabies virus strain ERA); remark: listed apart in the source
# [57] = target: looped peptide … (rabies virus strain ERA); remark: listed apart in the source
# [58] = target: looped peptide … (rabies virus strain ERA); remark: listed apart in the source
# [59] = target: looped peptide … (rabies virus strain ERA); remark: listed apart in the source
# [60] = target: looped peptide … (rabies virus strain ERA); remark: listed apart in the source
# [61] = target: looped peptide … (rabies virus strain ERA); remark: listed apart in the source
# [62] = target: looped peptide … (rabies virus strain ERA); remark: listed apart in the source
# [63] = target: looped peptide … (rabies virus strain ERA); remark: listed apart in the source
# [64] = target: looped peptide … (rabies virus strain ERA); remark: listed apart in the source
# [65] = target: looped peptide … (rabies virus strain ERA); remark: listed apart in the source
# [66] = target: looped peptide … (rabies virus strain ERA); remark: listed apart in the source
# [67] = target: looped peptide … (rabies virus strain ERA); remark: listed apart in the source
binder,measurement,setting,value
"human monoclonal antibody CRJB (antibody, V domains shown) VH: QITLKETGPTLVKPTQTLTLTCTFSGFSLSTSGVGVGWIRQPPGKALEWVTLIYWDDDKRYSPSLENRVTIRKDTSKNQVALTMTNMDPLDTGTYYCAHRQHISSFPWFDSWGQGTLVTVSS VL: SYVLTQPPSVSVAPGKTARINCGGNNIEYRSVHWYQQKSGQAPVAVIYDNSDRPSGIPERFSGSKSGNTATLTISRVEAGDEADYYCQVWDISSDVVFGGGTKLTVLG",OD value,[1],74
same,OD value,[2],103
same,OD value,[3],77
same,OD value,[4],68
same,OD value,[5],100
same,OD value,[6],106
same,OD value,[7],123
same,OD value,[8],83
same,OD value,[9],73
same,OD value,[10],27
same,OD value,[11],44
same,OD value,[12],83
same,OD value,[13],23
same,OD value,[14],56
same,OD value,[15],62
same,OD value,[16],65
same,OD value,[17],79
same,OD value,[18],58
same,OD value,[19],79
same,OD value,[20],93
same,OD value,[21],85
same,OD value,[22],106
same,OD value,[23],90
same,OD value,[24],89
same,OD value,[25],112
same,OD value,[26],83
same,OD value,[27],105
same,OD value,[28],76
same,OD value,[29],5
same,OD value,[30],27
same,OD value,[31],2
same,OD value,[32],71
same,OD value,[33],82
same,OD value,[34],55
same,OD value,[35],66
same,OD value,[36],96
same,OD value,[37],64
same,OD value,[38],79
same,OD value,[39],70
same,OD value,[40],90
same,OD value,[41],90
same,OD value,[42],106
same,OD value,[43],127
same,OD value,[44],111
same,OD value,[45],80
same,OD value,[46],78
same,OD value,[47],92
same,OD value,[48],25
same,OD value,[49],42
same,OD value,[50],8
same,OD value,[51],72
same,OD value,[52],94
same,OD value,[53],97
same,OD value,[54],84
same,OD value,[55],94
same,OD value,[56],83
same,OD value,[57],54
same,OD value,[58],88
same,OD value,[59],111
same,OD value,[60],79
same,OD value,[61],61
same,OD value,[62],66
same,OD value,[63],82
same,OD value,[64],93
same,OD value,[65],72
same,OD value,[66],74
same,OD value,[67],58
